Test results from patent publication US20150328292A1, “CASPASE POLYPEPTIDES HAVING MODIFIED ACTIVITY AND USES THEREOF” (BELLICUM PHARMACEUTICALS, INC., priority 2014, published 2015).
Substitutions are numbered along the chain they refer to. Names may count otherwise.

B1: D327G: chimeric modified caspase-9 polypeptide variant (protein)
chain: VDGFGDVGALESLRGNADLAYILSMEPCGHCLIINNVNFCRESGLRTRTGSNIDCEKLRRRFSSLHFMVEVKGDLTAKKMVLALLELARQDHGALDCCVVVILSHGCQASHLQFPGAVYGTDGCPVSVEKIVNIFNGTSCPSLGGKPKLFFIQACGGEQKDHGFEVASTSPEDESPGSNPEPDATPFQEGLRTFGQLDAISSLPTPSDIFVSYSTFPGFVSWRDPKSGSWYVETLDDIFEQWAHSEDLQSLLLRVANAVSVKGIYKQMPGCFNFLRKKLFFKTSASRA
B2: D327R: chimeric modified caspase-9 polypeptide variant (protein)
chain: B1 chain with G195R
B3: Q328K: chimeric modified caspase-9 polypeptide variant (protein)
chain: B1 chain with G195D, Q196K
B4: T317C: chimeric modified caspase-9 polypeptide variant (protein)
chain: B1 chain with T185C, G195D
B5: D327K: chimeric modified caspase-9 polypeptide variant (protein)
chain: B1 chain with G195K
B6: L329G: chimeric modified caspase-9 polypeptide variant (protein)
chain: B1 chain with G195D, L197G
B7: A331K: chimeric modified caspase-9 polypeptide variant (protein)
chain: B1 chain with G195D, A199K
B8: F326K: chimeric modified caspase-9 polypeptide variant (protein)
chain: B1 chain with F194K, G195D
B9: Q328R: chimeric modified caspase-9 polypeptide variant (protein)
chain: B1 chain with G195D, Q196R
B10: L329K: chimeric modified caspase-9 polypeptide variant (protein)
chain: B1 chain with G195D, L197K
B11: N405A: chimeric modified caspase-9 polypeptide variant (protein, UniProt P55211 1-416, looked up, variant N405A)
chain: MDEADRRLLRRCRLRLVEELQVDQLWDALLSRELFRPHMIEDIQRAGSGSRRDQARQLIIDLETRGSQALPLFISCLEDTGQDMLASFLRTNRQAAKLSKPTLENLTPVVLRPEIRKPEVLRPETPRPVDIGSGGFGDVGALESLRGNADLAYILSMEPCGHCLIINNVNFCRESGLRTRTGSNIDCEKLRRRFSSLHFMVEVKGDLTAKKMVLALLELAQQDHGALDCCVVVILSHGCQASHLQFPGAVYGTDGCPVSVEKIVNIFNGTSCPSLGGKPKLFFIQACGGEQKDHGFEVASTSPEDESPGSNPEPDATPFQEGLRTFDQLDAISSLPTPSDIFVSYSTFPGFVSWRDPKSGSWYVETLDDIFEQWAHSEDLQSLLLRVANAVSVKGIYKQMPGCFAFLRKKLFFKTS
modifications: chimeric, fused to FKBP12v36
notes: chimeric modified caspase-9 polypeptide variant
B12: G402I: chimeric modified caspase-9 polypeptide variant (protein, UniProt P55211 1-416, looked up, variant G402I)
chain: B11 chain with G402I, A405N
modifications: chimeric, fused to FKBP12v36
notes: as for B11
B13: G402Y: chimeric modified caspase-9 polypeptide variant (protein, UniProt P55211 1-416, looked up, variant G402Y)
chain: B11 chain with G402Y, A405N
modifications: chimeric with dimerization domain
notes: as for B11
B14: N405F: chimeric modified caspase-9 polypeptide variant (protein, UniProt P55211 1-416, looked up, variant N405F)
chain: B11 chain with A405F
modifications: chimeric, fused to FKBP12v36
notes: as for B11
B15: N405T: chimeric modified caspase-9 polypeptide variant (protein, UniProt P55211 1-416, looked up, variant N405T)
chain: B11 chain with A405T
modifications: chimeric, fused to FKBP12v36
notes: as for B11
B16: C403P: chimeric modified caspase-9 polypeptide variant (protein, UniProt P55211 1-416, looked up, variant C403P)
chain: B11 chain with C403P, A405N
modifications: chimeric, fused to FKBP12v36
notes: as for B11
B17: ^316ATPF^319AVPI: caspase-9 with ATPF tetrapeptide replaced by SMAC/DIABLO AVPI (protein, UniProt P55211 1-416, looked up, variant T317V F319I)
chain: B11 chain with T317V, F319I, A405N
B18: D315A: chimeric modified caspase-9 polypeptide variant (protein, UniProt P55211 1-416, looked up, variant D315A)
chain: B11 chain with D315A, A405N
modifications: chimeric, fused to FKBP12v36
notes: as for B11
B19: ^402GCFNF^406ISAQT: caspase-9 with 402-406 residues replaced by those of Caspase-10 (protein, UniProt P55211 1-416, looked up, variant G402I C403S F404A N405Q F406T)
chain: B11 chain with G402I, C403S, F404A, A405Q, F406T
modifications: residues from caspase-10
B20: G402Q: chimeric modified caspase-9 polypeptide variant (protein, UniProt P55211 1-416, looked up, variant G402Q)
chain: B11 chain with G402Q, A405N
modifications: chimeric, fused to FKBP12v36
notes: as for B11
B21: D315A-D330A: chimeric modified caspase-9 polypeptide double mutant (protein, UniProt P55211 1-416, looked up, variant D315A D330A)
chain: B11 chain with D315A, D330A, A405N
modifications: chimeric, fused to FKBP12v36
notes: chimeric modified caspase-9 polypeptide double mutant

Test system: HEK293T/16 cells
Experiment: SEAP reporter-based surrogate killing assay (basal activity and AP1903 IC50)
Type: cell-based, human
Settings: AP1903-independent SEAP activity, vs wild type
Procedure: FIG. 45 provides a schematic of an analysis of SEAP assays. […] of the mixture was seeded onto each well of a 96-well plate. […] For the assay, 4-methylumbelliferyl phosphate substrate was hydrolyzed by SEAP to 4-methylumbelliferon, a metabolite that can be excited with 364 nm and detected with an emission filter of 448 nm. Since SEAP is used as a marker for cell viability, reduced SEAP reading corresponds with increased icaspase-9 activities.
Early passage HEK293T/16 cells (ATCC, Manassas, Va.) were maintained in IMDM, GlutaMAX™ (Life Technologies, Carlsbad, Calif.) supplemented with 10% FBS, 100 U/mL penicillin, and 100 […] until transfection in a humidified, 37° C., 5% CO2/95% air atmosphere. Cells in logarithmic-phase growth were transiently transfected with 800 ng to 2 μg of expression plasmid encoding iCasp9 mutants and 500 ng of an expression plasmid encoding SRα promoter driven SEAP per million cells in 15-mL conical tubes. […] GeneJammer® Transfection Reagent at a ratio of 3 μl per ug of plasmid DNA was used to transiently transfect HEK293T/16 cells in the absence of antibiotics. 100 μl or 2 mL of the transfection mixture was added to each well in 96-well or 6-well plate, respectively.
Briefly, after 65° C. heat denaturation for 45 minutes to reduce background caused by endogenous (and serum-derived) alkaline phosphatases that are sensitive to heat, 5 μl of supernatants was added to 95 μl of PBS and added to 100 μl of substrate buffer, containing 1 μl of 100 mM 4-methylumbelliferyl phosphate (4-MUP; Sigma, St. Louis, Mo.) re-suspended in 2 M diethanolamine. Hydrolysis of 4-MUP by SEAP produces a fluorescent […] with excitation/emission (355/460 nm), which can be easily measured. Assays were performed in black opaque 96-well plates to minimize fluorescence leakage between wells (FIG. 45).

Molecule	basal activity / basal signaling (in words)
B1	did not lower basal activity
B2	did not lower basal activity
B3	did not lower basal activity
B4	no effect
B5	did not lower basal activity
B6	did not lower basal activity
B7	did not lower basal activity
B8	did not lower basal activity
B9	did not lower basal activity
B10	did not lower basal activity
B11	no effect
B12	catalytically inactive
B13	catalytically inactive
B14	lowered basal activity
B15	increased basal activity
B16	catalytically inactive
B17	no effect
B18	reduced basal activity
B19	reduced basal activity
B20	catalytically inactive
B21	inactive
